The numbers were not newly measured in publication PMC9027846, which cites them from elsewhere.

Usually Kd stands for the constant that tells how readily two partners part at equilibrium.

The target in this data set is Plasmin (Homo sapiens) (UniProt P00747). Put plainly: BLI. For orientation: In BLI a coated tip is dipped into the sample, and binding shifts an interference pattern.
UniProt P00747, sequence (P00747 581-810): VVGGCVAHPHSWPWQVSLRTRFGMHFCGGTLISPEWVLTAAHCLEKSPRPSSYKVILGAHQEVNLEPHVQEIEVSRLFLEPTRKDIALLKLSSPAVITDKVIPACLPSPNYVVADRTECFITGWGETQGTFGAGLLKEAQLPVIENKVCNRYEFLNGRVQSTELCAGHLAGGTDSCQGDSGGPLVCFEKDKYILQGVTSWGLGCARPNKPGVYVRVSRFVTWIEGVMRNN

On to AaTI (from UniProt Q177W0), for which the Kd was 62.8 nM.
